± gives the uncertainty stated by the source.
Assay: self-splicing fitness, log relative to wild type (ln ratio); higher = more splicing; Tetrahymena group I intron in knt gene, E. coli kanamycin selection, DiMSum; sequences stand for … in CUCUCU…GGAGGGAAAAGUUAUCAGGCAUGCACCUGGUAGCUAGUCUUUAAACCAAUAGAUUGCAUCGGUUUAAAAGGCAAGACCGUCAAAUUGCGGGAAAGGGGUCAACAGCCGUUCAGUACCAAGUCUCAGGGGAAACUUUGAGAUGGCCUUGCAAAGGGUAUGGUAAUAAGCUGACGGACAUGGUCCUAACCACGCAGCCAAGUCCUAAGUCAACAGAUCUUCUGUUGAUAUGGAUGCAGUUCACAGACUAAAUGUCGGUCGGGGAAGAUGUAUUCUUCUCAUAAGAUAUAGUCGGACCUCUCCUUAAUGGGAGCUAGCGGAUGAAGUGAUGCAACACUGGAGCCGCUGGGAACUAAUUUGUAUGCGAAAGUAUAUUGAUUAGUUUUGGAGUACUCGUGGUCG
Summary of the method: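 A randomised library covering all eight P1ex-region intron nucleotides was built with the intron in the knt kanamycin-resistance gene on pET-22b(+) and held in E. coli BL21(DE3). Cells were grown overnight at 37°C or 30°C on LB agar, with or without 25 μg/mL kanamycin, plus 100 μg/mL carbenicillin, 50 μM IPTG and 0.2% rhamnose, and pooled colonies were amplicon-sequenced on an Illumina HiSeq 2500. DiMSum fitness is the error-weighted combination of wild-type-normalised replicate fold changes, kanamycin versus none.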

Sequence | self-splicing fitness (ln) (30 °C) | self-splicing fitness (ln) (37 °C)
UCUCAGCAAUAUUACGGCGG | -2.46 ± 0.16 | -1.01 ± 0.18
GGAAAGCAAUAUUACGUUAA | -3.35 ± 0.16 | -1.84 ± 0.15
AACUAGCAAUAUUACGCACG | -0.871 ± 0.098 | -0.361 ± 0.12
GUGUAGCAAUAUUACGGAGA | – | -2.36 ± 0.45
CUUAAGCAAUAUUACGUCAU | -4.2 ± 0.26 | -2.84 ± 0.19
CCACAGCAAUAUUACGGCGC | -3.56 ± 0.16 | -2.17 ± 0.13
GGCAAGCAAUAUUACGUGGC | -3.53 ± 0.34 | -1.28 ± 0.19
GUCUAGCAAUAUUACGCGUG | -0.894 ± 0.058 | -0.777 ± 0.072
AAGUAGCAAUAUUACGAGUC | -2.53 ± 0.18 | -2.47 ± 0.3
AAUUAGCAAUAUUACGAUUA | -0.375 ± 0.15 | -0.559 ± 0.15
AUAAAGCAAUAUUACGCUUA | -1.27 ± 0.1 | 0.137 ± 0.12
CCGCAGCAAUAUUACGGUAG | -2.16 ± 0.086 | -1.11 ± 0.093
CGGUAGCAAUAUUACGUGGC | -3.4 ± 0.17 | -3.09 ± 0.23
UGUUAGCAAUAUUACGGGAC | – | -2.99 ± 0.48
AACUAGCAAUAUUACGUCGA | -0.769 ± 0.087 | -0.975 ± 0.09
AAAAAGCAAUAUUACGAACG | -0.0786 ± 0.076 | -0.303 ± 0.1
UCGUAGCAAUAUUACGAAGG | -3.63 ± 0.47 | –
CCAAAGCAAUAUUACGCAUA | -3.42 ± 0.15 | -2.38 ± 0.17
AAAGAGCAAUAUUACGGUCC | -3.16 ± 0.44 | -0.864 ± 0.38
UUGGAGCAAUAUUACGUCCG | -2.22 ± 0.29 | -1.27 ± 0.4
AAUAAGCAAUAUUACGGGCG | -1.29 ± 0.086 | -0.752 ± 0.095
GAAGAGCAAUAUUACGUACA | -3.17 ± 0.2 | -2.7 ± 0.18
GAGAAGCAAUAUUACGGGAU | -3.32 ± 0.16 | -2.58 ± 0.2
AAUAAGCAAUAUUACGGAAA | -1.5 ± 0.33 | -2.03 ± 0.39
AGUAAGCAAUAUUACGUUGG | -3.59 ± 0.48 | -2.64 ± 0.36

Sequence | self-splicing fitness (ln) (30 °C) | self-splicing fitness (ln) (37 °C)
CAACAGCAAUAUUACGCGCA | -0.857 ± 0.085 | 0.0215 ± 0.087
UUAGAGCAAUAUUACGUCUC | -3.56 ± 0.25 | -2.82 ± 0.34
AGCGAGCAAUAUUACGCCUU | -1.94 ± 0.25 | -2.62 ± 0.48
UCCUAGCAAUAUUACGCGCA | -1.31 ± 0.1 | -0.0853 ± 0.097
CUCUAGCAAUAUUACGGAAG | -2.95 ± 0.13 | -1.34 ± 0.12
UCUGAGCAAUAUUACGAGAG | -4.12 ± 0.26 | -2.69 ± 0.45
ACCUAGCAAUAUUACGUUUC | -3.55 ± 0.13 | -1.94 ± 0.13
CAUCAGCAAUAUUACGAUAG | -0.277 ± 0.1 | -0.0749 ± 0.14
UAUUAGCAAUAUUACGUCGA | -1.27 ± 0.16 | -0.984 ± 0.17
CCUUAGCAAUAUUACGUGGC | -4.19 ± 0.31 | -2.88 ± 0.31
UGGAAGCAAUAUUACGUGUU | -3.39 ± 0.16 | -2.7 ± 0.17
GCUUAGCAAUAUUACGGAAU | -1.15 ± 0.062 | 0.0941 ± 0.077
UUCUAGCAAUAUUACGCCAC | – | -2.02 ± 0.46
CGGUAGCAAUAUUACGUUCG | -2.19 ± 0.14 | -1.99 ± 0.24
UUGAAGCAAUAUUACGAGGA | -2.32 ± 0.16 | -0.555 ± 0.19
UAGCAGCAAUAUUACGUAGU | -2.15 ± 0.14 | -2.48 ± 0.31
UUUGAGCAAUAUUACGUCCA | – | -0.659 ± 0.37
AAGUAGCAAUAUUACGUAAC | -1.51 ± 0.13 | -2.24 ± 0.24
UUAGAGCAAUAUUACGGGGG | -3.04 ± 0.31 | -1.79 ± 0.36
UGCGAGCAAUAUUACGGCAG | -1.33 ± 0.15 | -1.59 ± 0.21
UAAAAGCAAUAUUACGAGUU | -2.99 ± 0.16 | -1.91 ± 0.14
CUUUAGCAAUAUUACGUACC | – | -1.68 ± 0.3
UGCUAGCAAUAUUACGGCCU | 0.151 ± 0.14 | 0.383 ± 0.16
GCUUAGCAAUAUUACGUACA | -1.38 ± 0.13 | -0.577 ± 0.14
UCGCAGCAAUAUUACGACGC | -1.81 ± 0.48 | –

— the supplement of paper PMC7877785
